According to patent US20220193271A1 (REGENTS OF THE UNIVERSITY OF MICHIGAN, published 2022):
Primed or numbered codes have the meaning given here. Ends that are not written are not given here. Cy5.5 = cyanine fluorophore coupled as NHS ester to the lysine side chain; Cy5.5″ = fluorophore Cy5.5, coupled as NHS ester to Lys side chain

How the values were obtained:
[1] = molecular target: human cMet on cells (HT29 human colorectal cancer cells; S114 cells; human colon tissue and organoids) (human) (UniProt P08581); experiment: confocal microscopy, HT29 versus SW480 cells
[2] = molecular target: human cMet on cells (HT29 human colorectal cancer cells; S114 cells; human colon tissue and organoids) (human) (UniProt P08581); experiment: confocal microscopy, S114 versus NIH3T3 cells
[3] = molecular target: human cMet on cells (HT29 human colorectal cancer cells; S114 cells; human colon tissue and organoids) (human) (UniProt P08581); experiment: confocal microscopy, HT29 cells with control or cMet siRNA
[4] = molecular target: T1, human cMet on cells (HT29 human colorectal cancer cells; S114 cells; human colon tissue and organoids) (human, UniProt P08581 25-1390); experiment: confocal microscopy, HT29 versus SW480 cells, 5 µM peptide
T1 construct: whole, on cells; also called mesenchymal-epithelial transition factor
Description: FIG. 10. Peptide validation with human colorectal cancer cells in vitro. […] Two-way ANOVA models were fit with terms for 6 conditions and 6 replicate slides on log-transformed data. Measurements were an average of 5 randomly chosen cells on 6 slides for each condition.
(§1) HT29, SW480, S114 and NIH3T3 cells were inoculated in 12-well cell culture plates with circle glass coverslips to about 80% confluence. The cells were blocked with 1×PBS plus 2% BSA for 1 hour at 4° C., then were incubated with 5 μM peptides for 10 min at RT in the dark, washed thrice, and fixed with 4% PFA for 5 min, washed with 1×PBS, then mounted on glass slides with ProLong Gold reagent containing DAPI (Invitrogen, Waltham, Mass.). As positive control, after blocking with 2% BSA for 1 hour at 4° C., A 1:3000 dilution of primary monoclonal rabbit anti-cMet antibody (Cell Signaling Technology, #8198) was incubated with cells overnight at 4° C. […] Confocal fluorescence images were collected using a 63× oil-immersion objective (Leica SP5 Inverted 2-Photon FLIM Confocal). Fluorescence intensities from five cells in two independent images were quantified using custom Matlab (Mathworks) software.

[5] = molecular target: T1, human cMet on cells (HT29 human …); experiment: confocal microscopy, S114 versus NIH3T3 cells, 5 µM peptide
Source text: (§2) FIG. 11. Peptide validation with mouse cells in vitro. […] Two-way ANOVA models were fit with terms for 6 conditions and 6 replicate slides on log-transformed data. Measurements were an average of 5 randomly chosen cells on 6 slides for each condition. […] An ANOVA model was fit to log-transformed data with terms for 6 conditions. There were 6 replicate slides per condition and 10 cells measured per slide.
(§3) HT29, SW480, S114 and NIH3T3 cells were inoculated in 12-well cell culture plates with circle glass coverslips to about 80% confluence. The cells were blocked with 1×PBS plus 2% BSA for 1 hour at 4° C., then were incubated with 5 μM peptides for 10 min at RT in the dark, washed thrice, and fixed with 4% PFA for 5 min, washed with 1×PBS, then mounted on glass slides with ProLong Gold reagent containing DAPI (Invitrogen, Waltham, Mass.).

[6] = molecular target: T1, human cMet on cells (HT29 human …); experiment: confocal microscopy, HT29 cells with control or cMet siRNA, 5 µM peptide
Source text: FIG. 2. In vitro validation with cMet knockdown. […] Fluorescence intensities for D) peptide and E) antibody were reduced with HT29 knockdown cells transfected with sicMet-targeting siRNA. […] A two-way ANOVA model was fit with terms for 6 conditions and 6 replicate slides on log-transformed data. Measurements were an average of 5 randomly chosen cells on 6 slides for each condition.
as §1

[7] = molecular target: T1, human cMet on cells (HT29 human …); experiment: flow cytometry, QQT*-Cy5.5 at 0-200 nmol/L on HT29 cells, 1 hour at 4 °C
Description: We assessed the binding affinity of QQT*-Cy5.5 to HT29 cells by measuring the apparent dissociation constant. HT29 cells were blocked with 0.5% BSA, and then approximately 10⁵ cells were incubated with QQT*-Cy5.5 at concentrations of 0, 10, 25, 50, 75, 100, 125, 150, or 200 nmol/L for 1 hour at 4° C. Cells then were washed 3 times with 1×PBS containing 0.5% BSA to remove unbound peptides before analysis with flow cytometry (FACS Canto; BD Biosciences, San Jose, Calif.). Sample means were used to calculate the equilibrium dissociation constant KD using nonlinear regression analysis with Origin 6.1 data analysis software (OriginLab, Northampton, Mass.). […] I₀ and Iₘₐₓ are the initial and maximum fluorescence intensities, corresponding to no peptide and peptide saturation, respectively, and [X] represents the concentration of the bound peptide.³⁴
Specific binding of QQT*-Cy5.5 to cMet was confirmed by adding unlabeled QQT* to compete for binding. […] An apparent dissociation constant of kd=57 nM was measured for binding by QQT*-Cy5.5 to HT29 cells using flow cytometry, FIG. 3C, and an apparent association time constant of k=0.62 min⁻¹ (1.6 min) was measured for the same cells, supporting rapid binding with topical administration, FIG. 3D.

[8] = molecular target: T1, human cMet on cells (HT29 human …); experiment: confocal microscopy, S114 cells, reference TLQ*-Cy5.5
Source text: as §2, §3

[9] = molecular target: T2, mouse cMet on colonocytes of CPC;Apc mouse colon (mouse, UniProt P16056 25-1379); experiment: ex vivo NIR fluorescence imaging of excised CPC;Apc mouse colon
T2 construct: whole, on cells; Target in tissue staining; also called cMet (mouse colon adenoma / dysplasia)
Description: After imaging was completed, the mice were euthanized. The colon was resected and divided longitudinally, the colon was excised, flushed with PBS, and opened longitudinally for imaging with the NIR fluorescence imaging system (Pearl®, LI-COR Biosciences). Images were collected with […] resolution using λex=685 nm and λem=720 nm. Images were analyzed with custom software (Image Studio, Li-Cor Biosciences). The normal colon region with an equal area adjacent to the polyps was used to measure background. Prism software (v6.02, GraphPad) was used to plot data.
After imaging was completed, the CPC;Apc mice were euthanized, and the colon was excised and divided longitudinally to expose the mucosal surface for collection of macroscopic white light and fluorescence images, FIGS. 5 L,M and 13A, B. The polyp locations co-localized on white light and fluorescence images, FIG. 13C. […] Immunohistochemistry was performed with a known antibody to validate increased expression of cMet in mouse dysplasia, FIG. 13E, by comparison with normal colonic mucosa, FIG. 13F.

Chain of human cMet on cells (HT29 human colorectal cancer cells; S114 cells; human colon tissue and organoids) (human) (P08581 25-1390): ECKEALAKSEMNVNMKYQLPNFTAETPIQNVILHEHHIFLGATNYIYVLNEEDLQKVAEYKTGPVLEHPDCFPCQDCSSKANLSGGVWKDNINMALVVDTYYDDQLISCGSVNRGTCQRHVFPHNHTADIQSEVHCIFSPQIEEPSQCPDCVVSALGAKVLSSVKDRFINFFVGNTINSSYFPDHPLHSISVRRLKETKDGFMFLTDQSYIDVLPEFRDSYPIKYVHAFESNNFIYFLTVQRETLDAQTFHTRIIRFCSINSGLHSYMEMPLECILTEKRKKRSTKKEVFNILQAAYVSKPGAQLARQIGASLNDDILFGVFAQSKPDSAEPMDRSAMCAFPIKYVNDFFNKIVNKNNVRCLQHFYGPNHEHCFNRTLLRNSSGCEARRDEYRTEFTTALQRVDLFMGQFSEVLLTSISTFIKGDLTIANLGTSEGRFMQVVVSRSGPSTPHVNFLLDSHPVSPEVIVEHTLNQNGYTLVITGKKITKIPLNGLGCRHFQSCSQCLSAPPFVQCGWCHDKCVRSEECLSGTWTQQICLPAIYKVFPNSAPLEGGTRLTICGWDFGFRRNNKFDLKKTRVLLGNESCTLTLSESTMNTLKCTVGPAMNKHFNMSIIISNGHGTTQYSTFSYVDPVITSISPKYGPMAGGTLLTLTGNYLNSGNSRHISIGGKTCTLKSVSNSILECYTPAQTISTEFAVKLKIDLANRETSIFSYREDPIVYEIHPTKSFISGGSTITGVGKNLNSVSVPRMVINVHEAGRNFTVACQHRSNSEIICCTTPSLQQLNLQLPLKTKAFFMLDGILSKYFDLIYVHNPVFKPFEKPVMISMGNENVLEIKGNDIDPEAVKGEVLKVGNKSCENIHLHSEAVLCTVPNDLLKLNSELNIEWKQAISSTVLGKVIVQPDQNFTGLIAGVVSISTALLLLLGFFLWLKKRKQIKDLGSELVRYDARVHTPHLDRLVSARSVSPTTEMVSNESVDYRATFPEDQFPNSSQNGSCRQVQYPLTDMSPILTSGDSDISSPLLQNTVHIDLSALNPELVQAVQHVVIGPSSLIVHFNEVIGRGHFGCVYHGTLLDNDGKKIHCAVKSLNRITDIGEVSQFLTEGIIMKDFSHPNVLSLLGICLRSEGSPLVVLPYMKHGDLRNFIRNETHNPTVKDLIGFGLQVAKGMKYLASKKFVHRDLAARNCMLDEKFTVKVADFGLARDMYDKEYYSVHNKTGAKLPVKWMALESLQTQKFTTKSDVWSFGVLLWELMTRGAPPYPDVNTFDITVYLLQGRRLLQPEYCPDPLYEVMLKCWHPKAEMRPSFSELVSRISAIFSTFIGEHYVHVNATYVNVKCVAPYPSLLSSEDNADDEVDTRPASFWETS
T1 sequence (P08581 25-1390): as above
T2 sequence (P16056 25-1379): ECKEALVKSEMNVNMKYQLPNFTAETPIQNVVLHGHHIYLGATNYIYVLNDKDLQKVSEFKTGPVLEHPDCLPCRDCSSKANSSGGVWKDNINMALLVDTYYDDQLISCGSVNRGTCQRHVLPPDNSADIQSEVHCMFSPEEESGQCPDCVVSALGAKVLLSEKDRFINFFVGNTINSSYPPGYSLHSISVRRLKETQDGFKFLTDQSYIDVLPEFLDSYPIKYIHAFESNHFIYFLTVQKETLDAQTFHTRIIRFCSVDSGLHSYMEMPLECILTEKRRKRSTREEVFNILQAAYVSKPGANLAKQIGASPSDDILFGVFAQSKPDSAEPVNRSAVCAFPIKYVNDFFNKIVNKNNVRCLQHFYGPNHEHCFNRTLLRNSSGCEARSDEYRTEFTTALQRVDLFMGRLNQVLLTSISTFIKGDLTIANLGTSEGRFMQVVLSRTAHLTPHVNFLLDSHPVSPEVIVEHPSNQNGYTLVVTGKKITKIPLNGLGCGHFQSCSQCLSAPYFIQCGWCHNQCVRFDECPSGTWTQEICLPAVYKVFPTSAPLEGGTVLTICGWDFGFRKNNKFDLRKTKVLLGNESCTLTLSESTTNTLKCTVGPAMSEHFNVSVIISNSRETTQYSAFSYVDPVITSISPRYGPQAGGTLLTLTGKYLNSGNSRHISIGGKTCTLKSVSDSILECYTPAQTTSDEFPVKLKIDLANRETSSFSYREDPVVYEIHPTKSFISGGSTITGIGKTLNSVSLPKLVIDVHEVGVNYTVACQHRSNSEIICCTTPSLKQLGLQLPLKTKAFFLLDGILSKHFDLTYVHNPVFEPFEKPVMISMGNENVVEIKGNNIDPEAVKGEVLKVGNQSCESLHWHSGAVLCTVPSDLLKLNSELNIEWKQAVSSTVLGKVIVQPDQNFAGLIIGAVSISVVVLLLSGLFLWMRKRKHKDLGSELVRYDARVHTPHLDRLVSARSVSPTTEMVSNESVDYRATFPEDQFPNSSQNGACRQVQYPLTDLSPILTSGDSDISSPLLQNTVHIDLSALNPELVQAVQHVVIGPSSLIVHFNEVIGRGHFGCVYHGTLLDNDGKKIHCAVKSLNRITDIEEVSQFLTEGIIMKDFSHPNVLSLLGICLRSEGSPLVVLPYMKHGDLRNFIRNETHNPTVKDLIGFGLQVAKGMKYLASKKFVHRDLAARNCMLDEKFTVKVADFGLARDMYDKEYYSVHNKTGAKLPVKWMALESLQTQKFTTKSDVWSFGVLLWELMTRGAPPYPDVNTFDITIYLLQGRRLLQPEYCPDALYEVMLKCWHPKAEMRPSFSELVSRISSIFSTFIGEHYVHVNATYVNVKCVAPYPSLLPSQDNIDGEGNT

Row | Molecule | fold change of mean intensity, HT29 (cMet+) versus SW480 (cMet-) cells [1] | fold change of mean intensity, S114 (cMet+) versus NIH3T3 (cMet-) cells [2] | fold reduction of fluorescence intensity with knockdown of cMet (siCL versus sicMet HT29 cells) [3] | fold change of mean intensity, HT29 (cMet+) versus SW480 (cMet-) cells [4] | fold change of mean intensity, S114 (cMet+) versus NIH3T3 (cMet-) cells [5] | fold change of fluorescence intensity with knockdown of cMet (siCL versus sicMet HT29 cells) [6] | Kd [7] | fold fluorescence intensity versus TLQ*-Cy5.5 [8] | fold reduction of fluorescence intensity with knockdown of cMet (siCL versus sicMet HT29 cells) [6] | binding result [9]
1 | primary monoclonal rabbit anti-cMet antibody (Cell Signaling Technology, #8198) detected with AF488-labeled secondary antibody | 4.3 fold | 6.7 fold | 4.1 fold |  |  |  |  |  |  | 
2 | TLQWNQSGGGSK(Cy5.5″)-NH2 (Scrambled control of QQT*-Cy5.5; also called TQL*-Cy5.5) [TLQ*-Cy5.5 (scrambled control peptide TLQWNQS linked through a GGGSK linker to Cy5.5)] |  |  |  | 0.85 fold | 0.72 fold | 0.96 fold |  |  |  | 
3 | QQTNWSLGGGSK(Cy5.5)-NH2 (Linear monomer made by Fmoc solid-phase synthesis; m/z 1827.67; also called target peptide) |  |  |  | 2.1 fold | 2.4 fold |  | 57 nM | 7 fold | 2.9 fold | binds
